The assay concerns the target HPV-6 L2E7 fusion protein (encoded by plasmid pGW53: pelB leader, HPV-6 L2, HPV-6 E7, His Tag) (human papillomavirus type 6 (HPV-6), clinical isolate H26) (UniProt P06464).

The substance “draining (axillary) lymph node cells from B6CBA mice immunized with L2E7/Alum (cells without a defined receptor)” registered an incorporation of tritiated thymidine (in-vitro lymphoproliferative response) (stimulation index) of 50.

The values above are taken from US6123948.
